{"source": "IntAct's records for PubMed 31515488", "parents": {"B1": {"name": "Histone-lysine N-methyltransferase SMYD1 (Homo sapiens), Q8NB12 (parent)", "chain": "MTIGRMENVEVFTAEGKGRGLKATKEFWAADIIFAERAYSAVVFDSLVNFVCHTCFKRQEKLHRCGQCKFAHYCDRTCQKDAWLNHKNECSAIKRYGKVPNENIRLAARIMWRVEREGTGLTEGCLVSVDDLQNHVEHFGEEEQKDLRVDVDTFLQYWPPQSQQFSMQYISHIFGVINCNGFTLSDQRGLQAVGVGIFPNLGLVNHDCWPNCTVIFNNGNHEAVKSMFHTQMRIELRALGKISEGEELTVSYIDFLNVSEERKRQLKKQYYFDCTCEHCQKKLKDDLFLGVKDNPKPSQEVVKEMIQFSKDTLEKIDKARSEGLYHEVVKLCRECLEKQEPVFADTNIYMLRMLSIVSEVLSYLQAFEEASFYARRMVDGYMKLYHPNNAQLGMAVMRAGLTNWHAGNIEVGHGMICKAYAILLVTHGPSHPITKDLEAMRVQTEMELRMFRQNEFMYYKMREAALNNQPMQVMAEPSNEPSPALFHKKQ", "partner": "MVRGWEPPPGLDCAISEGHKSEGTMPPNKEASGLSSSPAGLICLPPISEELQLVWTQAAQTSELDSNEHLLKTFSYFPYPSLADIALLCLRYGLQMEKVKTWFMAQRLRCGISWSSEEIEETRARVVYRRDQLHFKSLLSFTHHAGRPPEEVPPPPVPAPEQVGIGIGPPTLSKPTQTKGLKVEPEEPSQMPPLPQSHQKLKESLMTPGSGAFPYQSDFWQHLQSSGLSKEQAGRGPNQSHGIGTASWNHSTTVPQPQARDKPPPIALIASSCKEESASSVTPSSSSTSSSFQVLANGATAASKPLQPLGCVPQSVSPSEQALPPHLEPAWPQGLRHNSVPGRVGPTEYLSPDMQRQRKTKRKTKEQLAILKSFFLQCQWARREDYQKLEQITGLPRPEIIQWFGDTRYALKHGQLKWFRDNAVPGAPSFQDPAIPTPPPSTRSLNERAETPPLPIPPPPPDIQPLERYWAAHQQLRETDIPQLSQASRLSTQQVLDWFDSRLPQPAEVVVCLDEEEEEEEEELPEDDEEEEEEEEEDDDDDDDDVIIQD"}, "B2": {"name": "Keratin, type II cytoskeletal 79 (Homo sapiens), Q5XKE5 (parent)", "chain": "MRSSVSRQTYSTKGGFSSNSASGGSGSQARTSFSSVTVSRSSGSGGGAHCGPGTGGFGSRSLYNLGGHKSISVSVAGGALLGRALGGFGFGSRAFMGQGAGRQTFGPACPPGGIQEVTVNQSLLTPLHVEIDPEIQRVRTQEREQIKTLNNKFASFIDKVRFLEQQNKVLETKWALLQEQGQNLGVTRNNLEPLFEAYLGSMRSTLDRLQSERGRLDSELRNVQDLVEDFKNKYEDEINKHTAAENEFVVLKKDVDAAYMGRMDLHGKVGTLTQEIDFLQQLYEMELSQVQTHVSNTNVVLSMDNNRNLDLDSIIAEVKAQYELIAQRSRAEAEAWYQTKYEELQVTAGKHGDNLRDTKNEIAELTRTIQRLQGEADAAKKQCQQLQTAIAEAEQRGELALKDAQKKLGDLDVALHQAKEDLTRLLRDYQELMNVKLALDVEIATYRKLLESEESRMSGECPSAVSISVTGNSTTVCGGGAASFGGGISLGGSGGATKGGFSTNVGYSTVKGGPVSAGTSILRKTTTVKTSSQRY"}, "B3": {"name": "Ropporin-1A (Homo sapiens), Q9HAT0 (parent)", "chain": "MAQTDKPTCIPPELPKMLKEFAKAAIRVQPQDLIQWAADYFEALSRGETPPVRERSERVALCNRAELTPELLKILHSQVAGRLIIRAEELAQMWKVVNLPTDLFNSVMNVGRFTEEIEWLKFLALACSALGVTITKTLKIVCEVLSCDHNGGSPRIPFSTFQFLYTYIAKVDGEISASHVSRMLNYMEQEVIGPDGIITVNDFTQNPRVQLE"}, "B4": {"name": "BTB/POZ domain-containing protein KCTD6 (Homo sapiens), Q8NC69 (parent)", "chain": "MDNGDWGYMMTDPVTLNVGGHLYTTSLTTLTRYPDSMLGAMFGGDFPTARDPQGNYFIDRDGPLFRYVLNFLRTSELTLPLDFKEFDLLRKEADFYQIEPLIQCLNDPKPLYPMDTFEEVVELSSTRKLSKYSNPVAVIITQLTITTKVHSLLEGISNYFTKWNKHMMDTRDCQVSFTFGPCDYHQEVSLRVHLMEYITKQGFTIRNTRVHHMSERANENTVEHNWTFCRLARKTDD"}, "B5": {"name": "Protein Dr1 (Homo sapiens), Q01658 (parent)", "chain": "MASSSGNDDDLTIPRAAINKMIKETLPNVRVANDARELVVNCCTEFIHLISSEANEICNKSEKKTISPEHVIQALESLGFGSYISEVKEVLQECKTVALKRRKASSRLENLGIPEEELLRQQQELFAKARQQQAELAQQEWLQMQQAAQQAQLAAASASASNQAGSSQDEEDDDDI"}, "B6": {"name": "Oxidative stress-induced growth inhibitor 1 (Homo sapiens), Q9UJX0 (parent)", "chain": "MSSSRKDHLGASSSEPLPVIIVGNGPSGICLSYLLSGYTPYTKPDAIHPHPLLQRKLTEAPGVSILDQDLDYLSEGLEGRSQSPVALLFDALLRPDTDFGGNMKSVLTWKHRKEHAIPHVVLGRNLPGGAWHSIEGSMVILSQGQWMGLPDLEVKDWMQKKRRGLRNSRATAGDIAHYYRDYVVKKGLGHNFVSGAVVTAVEWGTPDPSSCGAQDSSPLFQVSGFLTRNQAQQPFSLWARNVVLATGTFDSPARLGIPGEALPFIHHELSALEAATRVGAVTPASDPVLIIGAGLSAADAVLYARHYNIPVIHAFRRAVDDPGLVFNQLPKMLYPEYHKVHQMMREQSILSPSPYEGYRSLPRHQLLCFKEDCQAVFQDLEGVEKVFGVSLVLVLIGSHPDLSFLPGAGADFAVDPDQPLSAKRNPIDVDPFTYQSTRQEGLYAMGPLAGDNFVRFVQGGALAVASSLLRKETRKPP", "partner": "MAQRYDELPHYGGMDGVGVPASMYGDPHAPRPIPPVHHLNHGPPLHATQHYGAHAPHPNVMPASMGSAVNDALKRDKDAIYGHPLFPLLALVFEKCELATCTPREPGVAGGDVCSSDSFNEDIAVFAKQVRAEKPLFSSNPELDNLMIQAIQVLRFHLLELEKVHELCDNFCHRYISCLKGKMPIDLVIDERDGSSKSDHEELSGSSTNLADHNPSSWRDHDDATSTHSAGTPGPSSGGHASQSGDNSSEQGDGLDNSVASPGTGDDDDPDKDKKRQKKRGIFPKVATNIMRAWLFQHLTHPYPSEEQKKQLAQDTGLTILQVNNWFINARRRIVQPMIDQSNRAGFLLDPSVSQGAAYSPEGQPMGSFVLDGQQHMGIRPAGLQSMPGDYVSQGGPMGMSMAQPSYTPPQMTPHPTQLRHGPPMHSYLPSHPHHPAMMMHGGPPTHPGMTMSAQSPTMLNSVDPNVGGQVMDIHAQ"}, "B7": {"name": "Alpha-taxilin (Homo sapiens), P40222 (parent)", "chain": "MKNQDKKNGAAKQSNPKSSPGQPEAGPEGAQERPSQAAPAVEAEGPGSSQAPRKPEGAQARTAQSGALRDVSEELSRQLEDILSTYCVDNNQGGPGEDGAQGEPAEPEDAEKSRTYVARNGEPEPTPVVNGEKEPSKGDPNTEEIRQSDEVGDRDHRRPQEKKKAKGLGKEITLLMQTLNTLSTPEEKLAALCKKYAELLEEHRNSQKQMKLLQKKQSQLVQEKDHLRGEHSKAVLARSKLESLCRELQRHNRSLKEEGVQRAREEEEKRKEVTSHFQVTLNDIQLQMEQHNERNSKLRQENMELAERLKKLIEQYELREEHIDKVFKHKDLQQQLVDAKLQQAQEMLKEAEERHQREKDFLLKEAVESQRMCELMKQQETHLKQQLALYTEKFEEFQNTLSKSSEVFTTFKQEMEKMTKKIKKLEKETTMYRSRWESSNKALLEMAEEKTVRDKELEGLQVKIQRLEKLCRALQTERNDLNKRVQDLSAGGQGSLTDSGPERRPEGPGAQAPSSPRVTEAPCYPGAPSTEASGQTGPQEPTSARA"}}}
{"variants_of": "B1", "settings": "with homez_human HOMEZ"}
{"variant": "R441W", "effect of a mutation on the interaction": "with no effect"}
{"variants_of": "B2", "settings": "with KRT15, P19012"}
{"variant": "R161Q", "effect of a mutation on the interaction": "with no effect"}
{"variant": "D217Y", "effect of a mutation on the interaction": "with no effect"}
{"variant": "G86E", "effect of a mutation on the interaction": "with no effect"}
{"variant": "H266R", "effect of a mutation on the interaction": "with no effect"}
{"variant": "R30C", "effect of a mutation on the interaction": "with no effect"}
{"variant": "R213W", "effect of a mutation on the interaction": "with no effect"}
{"variants_of": "B2", "settings": "with kt33b_human KRT33B"}
{"variant": "D217Y", "effect of a mutation on the interaction": "with no effect"}
{"variant": "H266R", "effect of a mutation on the interaction": "with no effect"}
{"variants_of": "B3", "settings": "with lnx1_human LNX1, Q8TBB1"}
{"variant": "C62W", "effect of a mutation on the interaction": "with no effect"}
{"variants_of": "B3", "settings": "with hnrl1_human HNRNPUL1, Q9BUJ2"}
{"variant": "C62W", "effect of a mutation on the interaction": "with no effect"}
{"variants_of": "B3", "settings": "with aapk1_human PRKAA1, Q13131"}
{"variant": "C62W", "effect of a mutation on the interaction": "with no effect"}
{"variants_of": "B4", "settings": "with prp31_human PRPF31, Q8WWY3"}
{"variant": "N207S", "effect of a mutation on the interaction": "with no effect"}
{"variants_of": "B4", "settings": "with echp_human EHHADH"}
{"variant": "N207S", "effect of a mutation on the interaction": "with no effect"}
{"variants_of": "B5", "settings": "with dpoe3_human POLE3, Q9NRF9"}
{"variant": "E171D", "effect of a mutation on the interaction": "with no effect"}
{"variants_of": "B5", "settings": "with tbp_human TBP"}
{"variant": "E171D", "effect of a mutation on the interaction": "with no effect"}
{"variants_of": "B6", "settings": "with meis2_human MEIS2, O14770"}
{"variant": "D320N", "effect of a mutation on the interaction": "with no effect"}
{"variant": "S236L", "effect of a mutation on the interaction": "with no effect"}
{"variants_of": "B7", "settings": "with cc136_human CCDC136, Q96JN2"}
{"variant": "P541S", "effect of a mutation on the interaction": "with no effect"}
{"variant": "S514R", "effect of a mutation on the interaction": "with no effect"}
{"variants_of": "B7", "settings": "with tfp11_human TFIP11, Q9UBB9"}
{"variant": "P541S", "effect of a mutation on the interaction": "with no effect"}
{"variant": "S514R", "effect of a mutation on the interaction": "with no effect"}
{"variants_of": "B7", "settings": "with ndc80_human NDC80, O14777"}
{"variant": "P541S", "effect of a mutation on the interaction": "with no effect"}
{"variant": "S514R", "effect of a mutation on the interaction": "with no effect"}
